Ends that are not written are not given here. * marks the point of attachment. Biotin = O=C1N[C@H]2[C@H](CS[C@H]2CCCCC(=O)*)N1
T1: syndecan-1 (Homo sapiens, UniProt P18827)
T1 construct: endogenous in cells; host or cells: primary normal human keratinocytes from foreskin biopsies
T1 sequence (P18827 23-310): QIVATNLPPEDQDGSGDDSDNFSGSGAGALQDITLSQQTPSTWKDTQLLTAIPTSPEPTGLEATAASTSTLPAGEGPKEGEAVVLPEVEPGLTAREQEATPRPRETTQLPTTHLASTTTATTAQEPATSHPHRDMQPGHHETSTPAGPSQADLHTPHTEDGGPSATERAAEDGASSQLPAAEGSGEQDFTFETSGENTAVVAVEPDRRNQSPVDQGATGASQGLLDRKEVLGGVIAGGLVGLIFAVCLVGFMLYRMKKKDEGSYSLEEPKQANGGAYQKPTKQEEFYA

T2: syndecan-1 from lysates of normal human keratinocytes or normal human fibroblasts (human, UniProt P18827 23-310, limits assumed, carries heparan sulphate and chondroitin sulphate chains during binding; stripped with heparitinase I and chondroitinase ABC before the immunoblot)
T2 construct: Endogenous proteoglycan of cell lysates; also called syndecan-1 receptor
T2 sequence (looked up): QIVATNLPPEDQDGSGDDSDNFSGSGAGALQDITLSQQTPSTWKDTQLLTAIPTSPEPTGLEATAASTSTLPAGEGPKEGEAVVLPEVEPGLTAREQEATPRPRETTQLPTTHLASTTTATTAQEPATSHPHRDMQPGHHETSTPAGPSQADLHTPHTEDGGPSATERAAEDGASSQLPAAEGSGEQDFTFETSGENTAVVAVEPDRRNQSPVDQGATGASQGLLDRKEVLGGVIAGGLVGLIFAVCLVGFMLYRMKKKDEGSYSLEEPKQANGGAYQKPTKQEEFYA


Columns and labels:
syndecan-1 = molecular target: T1, syndecan-1; experiment: Affinity chromatography (pull-down) with peptide-coated beads and syndecan-1 immunodetection; format: binding; settings: lysate of normal human keratinocytes, 2 mg; immunoblotting with antibody H174
Protocol: (A) A lysate of normal human keratinocytes was prepared as described in the Materials and Methods section and 2 mg of the lysate were incubated with neutravidin beads not coated or coated with the biotinylated peptides KKLRIKSKEK (SEQ ID NO: 1), PSGKPKSLP (SEQ ID NO: 19) and TSVTPKQSL (SEQ ID NO: 20). After washing, the material bound to the beads was digested with a mixture of heparitinase I and chondroitinase ABC to release the protein part of the syndecan-1 from the glycosaminoglycans. The samples were then analysed by SDS PAGE electrophoresis in an 8% acrylamide gel under non-reducing conditions and by immunoblotting with polyclonal anti-syndecan antibody H174. (B) A lysate of normal human keratinocytes was prepared and 2 mg of the lysate were incubated with neutravidin beads not coated or coated with the biotinylated peptide KKLRIKSKEK (SEQ ID NO: 1), or with sepharose beads coated with the whole LG4/5 fragment. After washing, the material bound to the beads was digested with a mixture of heparitinase I and chondroitinase ABC to release the protein part of the syndecan-1 from the glycosaminoglycans. The samples were then analysed by SDS PAGE electrophoresis in an 8% acrylamide gel under non-reducing conditions and by immunoblotting with polyclonal anti-syndecan antibody H174. (A, B) The position of molecular weight markers is shown on the left.
(§1) A series of point mutations was introduced into the peptide KKLRIKSKEK (SEQ ID NO: 1) by successively replacing each amino acid by an alanine (A). […] The samples were then analysed by SDS PAGE electrophoresis in an 8% acrylamide gel under non-reducing conditions and by immunoblotting with polyclonal anti-syndecan antibody H174. […]
as §1, with “point or multiple” for “point”, “by” for “by successively”, “one or more lysines (K)” for “each amino acid”, “a glutamine (Q).” for “an alanine (A).”

HT1080 cells = experiment: Cell adhesion test (crystal violet colorimetric) on immobilised peptide, HT1080 cells; format: cell-based, Human; settings: microscopy, FIG. 6B
Protocol: (A, B) Dose-dependent adhesion of normal human keratinocytes and cells of the HT1080 strain to the peptide KKLRIKSKEK (SEQ ID NO: 1) and to the LG4/5 protein. The peptide (A) and the protein LG4/5 (B) were immobilised on 96-well plates at the concentrations indicated on the abscissa. 6·10^4 cells were deposited in each well and the plates were incubated at 37° C. for 1 hour. After washing, the adherent cells were fixed and cell adhesion was measured as described in the methodology section. (C) Observation of normal human keratinocytes and HT1080 cells adhering to KKLRIKSKEK peptide (SEQ ID NO: 1) and to the LG4/5 protein. The observation was made with a Zeiss Axiovert 40 microscope equipped with a PlasDic interference unit. 50 μm bar.
(A) A decreasing range of peptides KKLRIKSKEK (SEQ ID NO: 1) and NSFMALYLSKGR (SEQ ID NO: 21) was immobilised in 96-well Microlon plates and the amount actually adsorbed was determined by protein assay with reference to a corresponding range of peptides made extemporaneously. The quantities of peptide tested are indicated on the abscissa of the graph. 6·10^4 cells were deposited in each well and the plates were incubated at 37° C. for 1 hour. After washing, the adherent cells were fixed and cell adhesion was measured as described in the methodology section. […]

[1] = test system: normal human keratinocytes; experiment: Cell viability test (XTT); settings: 100 to 1 μg/ml, medium renewed every two days (repeated twice)
Protocol: NHKs were seeded in 96-well plates at 10^4 cells per well. After 24 hours, the culture media were removed and replaced with KBM-2 medium containing the concentrations of peptide [sequence] (SEQ ID NO: 1) (upper curve) or LG4/5 protein (lower curve) shown. After 48 h of contact at 37° C. the media were removed and this step was repeated twice. After 48 h of contact at 37° C. the media were replaced by XTT reagent. The plates were then placed in an incubator at 37° C. and the absorption was read after 6 hours. Controls with neither peptide nor protein were made on the same plate.
The effect of the peptide on the cell viability of the normal human keratinocytes was analysed using a colorimetric assay (XTT Cell Proliferation Kit, Roche Diagnostics, Meylan, France). A control with the LG4/5 protein was carried out in parallel. The chemical reaction of the test is based on the production of NADPH in living cells reducing yellow tetrazolium XTT salts to orange formazan salts. Absorption at 490 nm is measured using an ELISA plate reader. […] In this case, cell viability was calculated from the formula: % viability=(Abs. cells with peptide/Abs. control cells)×100.

[2] = molecular target: T2, syndecan-1 from lysates of normal human …; experiment: pull-down from normal human keratinocyte lysate, immunoblot with H174
Protocol: To identify the nature of the cell receptor binding to the peptide […] (SEQ ID NO: 1), affinity chromatography or 'pull-down' assays were performed by incubating beads coated with peptides with cell lysates. Lysates of primary keratinocytes or fibroblasts were made using a lysis buffer of 1% triton X-100 in PBS, pH 7.5, containing N-ethylmaleimide and phenylmethylsulphonylfluoride 50 mM. The wild type peptide […] (SEQ ID NO: 1) and the mutated peptides were bound to biotin at their amino-terminal ends and 100 µg of each biotinylated peptide were attached to agarose-neutravidin beads (Perbio Science, Bezons, France) by incubation for 16 hours at +4° C. The beads were then incubated with 2 mg of cell lysate for 2 hours at +4° C. After washing 3 times with the lysis buffer, the beads were transferred into a digestion buffer (20 mM sodium acetate, 5 mM CaCl2, pH 7.0) containing 8 mU/ml heparitinase I and 50 mU/ml of chondroitinase ABC (Seikagaku America, Coger, Paris, France) for 2 hours at 25° C. This treatment strips the protein part of syndecan-1 of glycosaminoglycans, making it easier to analyse by immunoblotting. The samples were then analysed by SDS PAGE electrophoresis in an 8% acrylamide gel under non-reducing conditions and by immunoblotting with polyclonal anti-syndecan antibody H174 (Santa Cruz Biotechnology, Le Perray en Yvelines, France).

| Molecule | Binding of syndecan-1 to the biotinylated peptide on beads (syndecan-1) | binding result [2] | further results |
| --- | --- | --- | --- |
| PSGKPKSLP | did not retain the syndecan-1 |  |  |
| KKLRLRSKER [M2, from the murine laminin alpha3 chain] | proved capable of binding syndecan-1 |  |  |
| NSFMALYLSKGR |  |  | Morphology of HT1080 cells adhering to the peptide (HT1080 cells): no cytoplasmic prolongations were noted |
| KKLRIKSKEK [KKLRIKSKEK] |  |  | Cytotoxic effect on epidermal keratinocytes (percentage of viable cells vs controls) [1]: neither peptide KKLRIKSKEK (SEQ ID NO: 1) nor protein LG4/5 has any long-term cytotoxic effect |
| TSVTPKQSL | did not retain the syndecan-1 |  |  |
| PSGKPKSLP (also: biotinylated) [biotinylated peptide PSGKPKSLP (SEQ ID NO: 19)] |  | no binding |  |
| TSVTPKQSL (also: biotinylated) [biotinylated peptide TSVTPKQSL (SEQ ID NO: 20)] |  | no binding |  |
| Biotin-AKLRIKSKEK [mutated peptide A1 (alanine in place of amino acid 1 of …)] |  | no binding |  |
| Biotin-KKLAIKSKEK [mutated peptide A4 (alanine in place of amino acid 4 of …)] |  | no binding |  |
| Biotin-KKLRIKAKEK [mutated peptide A7 (alanine in place of amino acid 7 of …)] |  | no binding |  |
